The results in this text go back to patent US8895526B2, “Identification of RNAI targets and use of RNAI for rational therapy of chemotherapy-resistant leukemia and other cancers” (Cold Spring Harbor Laboratory, priority 2009, dated 2014).

First the molecules themselves.
B1: Cx3cr1.1223: shRNA, SEQ ID NO: 111 (nucleic acid)
chain: TGCTGTTGACAGTGAGCGACTGCATCTTATGTGCAAGAAATAGTGAAGCCACAGATGTATTTCTTGCACATAAGATGCAGGTGCCTACTGCCTCGGA
B2: Mef2c.1872: shRNA, SEQ ID NO: 141 (nucleic acid)
chain: TGCTGTTGACAGTGAGCGCTGCCTCAGTGATACAGTATAATAGTGAAGCCACAGATGTATTATACTGTATCACTGAGGCAATGCCTACTGCCTCGGA
B3: Pitpnm1.561: shRNA, SEQ ID NO: 165 (nucleic acid)
chain: TGCTGTTGACAGTGAGCGCCAGGATGCTTATCAAGGAGTATAGTGAAGCCACAGATGTATACTCCTTGATAAGCATCCTGATGCCTACTGCCTCGGA
B4: Tnfsf12.1204: shRNA, SEQ ID NO: 187 (nucleic acid)
chain: TGCTGTTGACAGTGAGCGCAATGGATATTAAAGAGAATAATAGTGAAGCCACAGATGTATTATTCTCTTTAATATCCATTTTGCCTACTGCCTCGGA
B5: Cd6.520: shRNA, SEQ ID NO: 102 (nucleic acid)
chain: TGCTGTTGACAGTGAGCGAGAGCCACTTCTGGGAACACAATAGTGAAGCCACAGATGTATTGTGTTCCCAGAAGTGGCTCCTGCCTACTGCCTCGGA
B6: L1cam.5255: shRNA, SEQ ID NO: 137 (nucleic acid)
chain: TGCTGTTGACAGTGAGCGCCAGAATTATAACAGGCAAATATAGTGAAGCCACAGATGTATATTTGCCTGTTATAATTCTGATGCCTACTGCCTCGGA
B7: Fosb.1165: shRNA, SEQ ID NO: 123 (nucleic acid)
chain: TGCTGTTGACAGTGAGCGCCAGGCGGAAACTGATCAGCTTTAGTGAAGCCACAGATGTAAAGCTGATCAGTTTCCGCCTGATGCCTACTGCCTCGGA
B8: Thyn1.315: shRNA, SEQ ID NO: 186 (nucleic acid)
chain: TGCTGTTGACAGTGAGCGCAAGCAACTACTGGCTGATGAATAGTGAAGCCACAGATGTATTCATCAGCCAGTAGTTGCTTATGCCTACTGCCTCGGA
B9: Ap1s2.2744: shRNA, SEQ ID NO: 90 (nucleic acid)
chain: TGCTGTTGACAGTGAGCGACAGGAGCAAGATGAGTTACTATAGTGAAGCCACAGATGTATAGTAACTCATCTTGCTCCTGCTGCCTACTGCCTCGGA
B10: Pygl.1463: shRNA, SEQ ID NO: 171 (nucleic acid)
chain: TGCTGTTGACAGTGAGCGCACCAGACAAGTTCCAGAATAATAGTGAAGCCACAGATGTATTATTCTGGAACTTGTCTGGTTTGCCTACTGCCTCGGA
B11: Adam23.5211: shRNA, SEQ ID NO: 89 (nucleic acid)
chain: TGCTGTTGACAGTGAGCGCTACGACCACGTCAGTTACAAATAGTGAAGCCACAGATGTATTTGTAACTGACGTGGTCGTATTGCCTACTGCCTCGGA
B12: Arf3.1357: shRNA, SEQ ID NO: 91 (nucleic acid)
chain: TGCTGTTGACAGTGAGCGACCCTTCTGTGTTGGTGAGATATAGTGAAGCCACAGATGTATATCTCACCAACACAGAAGGGCTGCCTACTGCCTCGGA
B13: Gart.2470: shRNA, SEQ ID NO: 126 (nucleic acid)
chain: TGCTGTTGACAGTGAGCGCAAGAATCTGATTGAAACCATATAGTGAAGCCACAGATGTATATGGTTTCAATCAGATTCTTATGCCTACTGCCTCGGA
B14: Pctk1.948: shRNA, SEQ ID NO: 161 (nucleic acid)
chain: TGCTGTTGACAGTGAGCGCCCGGGAAGTATCCCTGCTTAATAGTGAAGCCACAGATGTATTAAGCAGGGATACTTCCCGGATGCCTACTGCCTCGGA
B15: Fn3k.298: shRNA, SEQ ID NO: 122 (nucleic acid)
chain: TGCTGTTGACAGTGAGCGAAAGAGCCTTAGCAGTCAGGCATAGTGAAGCCACAGATGTATGCCTGACTGCTAAGGCTCTTCTGCCTACTGCCTCGGA
B16: Cerk.4466: shRNA, SEQ ID NO: 108 (nucleic acid)
chain: TGCTGTTGACAGTGAGCGCCTGGTATATTTGAGAAGACAATAGTGAAGCCACAGATGTATTGTCTTCTCAAATATACCAGATGCCTACTGCCTCGGA
B17: Fgd4.821: shRNA, SEQ ID NO: 119 (nucleic acid)
chain: TGCTGTTGACAGTGAGCGAAAGGAGACTAATGAACAGAAATAGTGAAGCCACAGATGTATTTCTGTTCATTAGTCTCCTTCTGCCTACTGCCTCGGA
B18: Fn1.4143: shRNA, SEQ ID NO: 121 (nucleic acid)
chain: TGCTGTTGACAGTGAGCGCCAGTAGGATACTACACAGTTATAGTGAAGCCACAGATGTATAACTGTGTAGTATCCTACTGATGCCTACTGCCTCGGA
B19: Dsp.6155: shRNA, SEQ ID NO: 114 (nucleic acid)
chain: TGCTGTTGACAGTGAGCGCCAGGAAGTTCTTCGATCAATATAGTGAAGCCACAGATGTATATTGATCGAAGAACTTCCTGTTGCCTACTGCCTCGGA
B20: Gas1.2159: shRNA, SEQ ID NO: 128 (nucleic acid)
chain: TGCTGTTGACAGTGAGCGACCCGAAATTACAACTGCATTATAGTGAAGCCACAGATGTATAATGCAGTTGTAATTTCGGGGTGCCTACTGCCTCGGA
B21: Cpd.1693: shRNA, SEQ ID NO: 109 (nucleic acid)
chain: TGCTGTTGACAGTGAGCGCACCAGGTGAACCAGAATTTAATAGTGAAGCCACAGATGTATTAAATTCTGGTTCACCTGGTTTGCCTACTGCCTCGGA
B22: Slc22a4.2223: shRNA, SEQ ID NO: 181 (nucleic acid)
chain: TGCTGTTGACAGTGAGCGCAAACGTATAAATGCTATCCAATAGTGAAGCCACAGATGTATTGGATAGCATTTATACGTTTATGCCTACTGCCTCGGA

The subject of one data set is immortalized murine embryonic fibroblasts (Mef). Briefly: Pooled negative selection RNAi screening (deep sequencing). It is filed as cell-based. The note with it: deep sequencing reads, on dox compared to initial representation. From the text: (§1) In addition to the analysis of single shRNAs for inhibitory effects in vitro and in vivo, the combination of tet-on competent cancer models and tet-regulatable shRNA expression vectors allowing for monitoring shRNA expression through fluorescent and other reporter genes (e.g. TRMPV and derivates) facilitates pooled shRNA negative selection screening (FIG. 37). In such approaches a pool of over 1,000 shRNAs are retrovirally transduced into tet-on competent cancer models (here MLL/AF9+Nras AML) and selected for shRNA containing cells by either drug selection (e.g. G418) or fluorescence-activated cell sorting (FACS). Selected cell populations harboring a library of shRNAs then can be cultured in the absence or presence of doxycyline (off dox and on dox, respectively) or injected into syngeneic recipient mice that are either treated with doxycyline or left untreated.
(§2) The representation of each shRNA within the pool can be effectively assessed by deep sequencing of shRNA cassettes in a given cell population. For this, genomic DNA is extracted from leukemia cells containing the shRNA pool, and the shRNA guide or passenger strand (21-22 target gene specific nucleotides of the shRNA) by PCR using primers specific for common sequences flanking the gene specific part of the shRNA (e.g. miR30 19 nt loop and miR30 common 3′ sequence). The primers also contain 5′-adapters required for deep sequencing (e.g. for Illumina/Solexa sequencing primers are p5+mir3: 5′-[…]-3′ (SEQ ID NO: 215) and p7+Loop: 5′-[…]-3′ (SEQ ID NO: 216)). Deep sequencing is subsequently performed using a primer binding the flanking nucleotide sequence next to the target gene specific part of the shRNA (for Illumina/Solexa platforms the primer is mir30EcoR1Seq: 5′-TAGCCCCTTGAATTCCGA GGCAGTAGGCA-3′ (SEQ ID NO: 217)).
(§3) The use of shRNA vectors that allow for monitoring of shRNA expression through fluorescent and other reporter genes (e.g. TRMPV) in combination with tet-on competent mouse models facilitates the isolation of pure shRNA expressing cell populations (e.g. by FACS, for TRMPV by sorting of Venus/dsRed double positive cells (FIG. 38). This selection of shRNA expressing cells prior to DNA isolation strongly reduces the background caused by cell populations with insufficient shRNA induction, which are predicted to contain genomic representation of the whole shRNA library without shRNA specific shifts in representation. The final readout is based on the comparison of shRNA representation (i.e. deep sequencing read numbers) before the assay (t0) or from cell populations left without doxycycline treatment (off dox) to those where shRNA were induced and cells subsequently sorted for shRNA expressing cells (on dox). shRNA with inhibitory effects are predicted to loose representation (show less reads) on dox compared to t0 and off dox.
(§4) This pooled is RNAi screening strategy can be applied to rapidly survey inhibitory effects of large pools of shRNAs (˜1000 at a time) in different tet-on competent cancer models and normal control cells (FIG. 39). For example, a pool of 1166 shRNAs targeting 836 predominantly druggable genes associated with MLL fusion proteins in human leukemia and mouse models of MLL/AF9-induced AML (MLL cure library) was analyzed in pooled negative selection screening in tet-on competent MLL/AF9+Nras AML and immortalized murine embryonic fibroblasts (Mef) in parallel. To establish and validate this screening approach, the pool also contained 64 control shRNAs each of which have been previously analyzed for inhibitory effects in both AML cells and Mefs using the same experimental system (FIG. 40).
(§5) After pooling of 1166 experimental and 64 control shRNAs the presence of shRNAs was verified by deep sequencing of shRNAs within the plasmid vector pool (FIG. 41). […]
Consider B1, for which the “Fold depletion in Mef” value was found to be 0.69 Fold.

In the case of B2, the “Fold depletion in Mef” value worked out at 0.77 Fold.

For B3, the “Fold depletion in Mef” value is 0.27 Fold.

Take B4: the “Fold depletion in Mef” value is on record as 0.93 Fold.

As for B5, the “Fold depletion in Mef” value is on record as 2.28 Fold.

Take B6: the “Fold depletion in Mef” value was 1.26 Fold.

In the case of B7, the “Fold depletion in Mef” value amounted to 3.61 Fold.

As for B8, the “Fold depletion in Mef” value is recorded as 1.04 Fold.

In the case of B9, the “Fold depletion in Mef” value is given as 2.31 Fold.

For B10, the “Fold depletion in Mef” value is listed as 1.94 Fold.

On to B11, for which the “Fold depletion in Mef” value was 0.30 Fold.

Consider B12, for which the “Fold depletion in Mef” value was 0.86 Fold.

As for B13, the “Fold depletion in Mef” value was determined as 0.67 Fold.

For the molecule B14, the “Fold depletion in Mef” value turned out to be 0.27 Fold.

For the molecule B15, the “Fold depletion in Mef” value came out at 2.82 Fold.

For the molecule B16, the “Fold depletion in Mef” value stood at 0.61 Fold.

Consider B17, for which the “Fold depletion in Mef” value stood at 2.12 Fold.

For B18, the “Fold depletion in Mef” value is on record as 0.84 Fold.

Consider B19, for which the “Fold depletion in Mef” value is 0.60 Fold.

As for B20, the “Fold depletion in Mef” value was 0.81 Fold.

Take B21: the “Fold depletion in Mef” value is listed as 3.91 Fold.

As for B22, the “Fold depletion in Mef” value amounted to 3.41 Fold.

In another data set the test system is tet-on competent MLL/AF9+Nras AML. The description is as above. The note with it: deep sequencing reads, On Dox compared to T0. It is filed as cell-based, mouse.
Source text: as §1, §2, §3, §4, §5
Take B1: the “Fold depletion in AML” value is given as 12.98 Fold.

For B2, the “Fold depletion in AML” value was 63.15 Fold.

With B3, the “Fold depletion in AML” value is on record as 60.72 Fold.

In the case of B4, the “Fold depletion in AML” value was 36.03 Fold.

Turning to B5, the “Fold depletion in AML” value stood at 28.66 Fold.

With B6, the “Fold depletion in AML” value was 31.42 Fold.

For the molecule B7, the “Fold depletion in AML” value stood at 13.12 Fold.

As for B8, the “Fold depletion in AML” value was determined as 145.53 Fold.

As to B9, the “Fold depletion in AML” value came to 57.84 Fold.

Regarding B10, the “Fold depletion in AML” value turned out to be 118.65 Fold.

B11: the “Fold depletion in AML” value stood at 40.11 Fold.

Regarding B12, the “Fold depletion in AML” value is listed as 94.96 Fold.

As for B13, the “Fold depletion in AML” value is listed as 146.15 Fold.

Take B14: the “Fold depletion in AML” value was 123.76 Fold.

Regarding B15, the “Fold depletion in AML” value was 103.54 Fold.

Regarding B16, the “Fold depletion in AML” value was found to be 27.79 Fold.

Take B17: the “Fold depletion in AML” value was 25.66 Fold.

On to B18, for which the “Fold depletion in AML” value is 36.54 Fold.

On to B19, for which the “Fold depletion in AML” value is reported as 242.96 Fold.

On to B20, for which the “Fold depletion in AML” value came to 132.34 Fold.

B21: the “Fold depletion in AML” value worked out at 50.07 Fold.

With B22, the “Fold depletion in AML” value is given as 41.21 Fold.
